Experimental data published in publication PMC1807977 (Nucleic Acids Research, 2007).

T1: CBP-tagged Tfb2 (purified yeast Tfb2 protein) (S. cerevisiae, UniProt Q02939 1-513)
T1 sequence (looked up): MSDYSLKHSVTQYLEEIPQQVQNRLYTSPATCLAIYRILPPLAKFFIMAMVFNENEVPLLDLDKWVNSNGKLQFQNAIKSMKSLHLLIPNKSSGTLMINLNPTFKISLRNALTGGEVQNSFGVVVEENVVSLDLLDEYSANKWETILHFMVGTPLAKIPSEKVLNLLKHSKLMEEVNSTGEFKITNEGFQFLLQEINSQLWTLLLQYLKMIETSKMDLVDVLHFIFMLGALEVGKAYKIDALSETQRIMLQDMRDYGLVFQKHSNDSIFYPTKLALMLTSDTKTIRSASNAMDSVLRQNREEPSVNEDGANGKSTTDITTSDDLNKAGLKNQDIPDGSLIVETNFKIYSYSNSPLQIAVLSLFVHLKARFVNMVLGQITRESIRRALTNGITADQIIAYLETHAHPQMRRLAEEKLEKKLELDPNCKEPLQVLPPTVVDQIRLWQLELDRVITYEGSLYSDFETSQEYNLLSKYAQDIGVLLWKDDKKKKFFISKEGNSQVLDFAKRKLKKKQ

T2: Tfb5 (Saccharomyces cerevisiae, UniProt Q3E7C1 1-72)
T2 sequence: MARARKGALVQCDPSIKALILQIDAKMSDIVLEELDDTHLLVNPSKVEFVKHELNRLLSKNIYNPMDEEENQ


Assays:
[1] = target: T1, CBP-tagged Tfb2 (purified yeast Tfb2 …); experiment: pull-down
Tfb5 = target: T2, Tfb5; experiment: EMSA
[2] = target: T1, CBP-tagged Tfb2 (purified yeast Tfb2 …); experiment: co-IP

| binding result [1] | Binder | also measured |
| --- | --- | --- |
| binds | His6-Tfb5ΔC14 (domain or fragment, S. cerevisiae, UniProt Q3E7C1 1-58, looked up) MARARKGALVQCDPSIKALILQIDAKMSDIVLEELDDTHLLVNPSKVEFVKHELNRLL | – |
| – | 79mer ss (ssDNA) DNA: GGAATTCCGGAATTACAGGCTCTAACACCGAATTACAGGCTCTAACACCGTCTCATCTTCGCTCGTCCACTTTTTTTCG | binding result (Tfb5): no binding |
| – | His6-Tfb5 (purified yeast Tfb5 protein) (natural protein, S. cerevisiae, UniProt Q3E7C1 1-72, looked up) MARARKGALVQCDPSIKALILQIDAKMSDIVLEELDDTHLLVNPSKVEFVKHELNRLLSKNIYNPMDEEENQ | binding result [2]: binds |
| binds | His6-Tfb5ΔN7 (domain or fragment, S. cerevisiae, UniProt Q3E7C1 8-72, looked up) ALVQCDPSIKALILQIDAKMSDIVLEELDDTHLLVNPSKVEFVKHELNRLLSKNIYNPMDEEENQ | – |
